Source: PMC12309418, “Human Plastins are Novel Cytoskeletal pH Sensors with a Reduced F-actin Bundling Capacity at Basic pH” (Journal of molecular biology, 2025)

How the values were obtained:
Conditions in all cases: both partners purified
[1] = biological target: T1, Skeletal actin, filamentous (F-actin) (rabbit, UniProt P68135 1-377); experiment: co-sedimentation; high-speed co-sedimentation (300,000 g, 30 min, 25 °C), 2 uM ABD1 with 0-125 uM F-actin, 10 mM HEPES pH 8.0, 30 mM KCl, 2 mM MgCl2, 0.5 mM EGTA; fraction depleted from the supernatant fit to a binding curve
[2] = biological target: T1, Skeletal actin, filamentous (F-actin); experiment: co-sedimentation; high-speed co-sedimentation (300,000 g, 30 min, 25 °C), 2 uM ABD1 with 0-125 uM F-actin, 10 mM HEPES pH 7.0, 30 mM KCl, 2 mM MgCl2, 0.5 mM EGTA; fraction depleted from the supernatant fit to a binding curve
[3] = biological target: T1, Skeletal actin, filamentous (F-actin); experiment: co-sedimentation; high-speed co-sedimentation (300,000 g, 30 min, 25 °C), 5 uM PLS2 with 0-100 uM F-actin, 10 mM HEPES pH 7.0, 30 mM KCl, 2 mM MgCl2, 0.5 mM EGTA; fraction of PLS2 in the pellet fit to a binding curve
[4] = biological target: T1, Skeletal actin, filamentous (F-actin); experiment: co-sedimentation; high-speed co-sedimentation (300,000 g, 30 min, 25 °C), 5 uM PLS2 with 0-100 uM F-actin, 10 mM HEPES pH 8.0, 30 mM KCl, 2 mM MgCl2, 0.5 mM EGTA; fraction of PLS2 in the pellet fit to a binding curve

Kd [1]	Kd [2]	Kd [3]	Kd [4]	Binder
13.9 µM	24.7 µM			PLS2 ABD1 (a.a. 120-385) (domain or fragment, source: E. coli BL21-CodonPlus(DE3)pLysS, purified (IMAC on cobalt resin, TEV cleavage, Superdex 200); not shown: His6, N-terminal, cleaved) EEEKYAFVNWINKALENDPDCRHVIPMNPNTNDLFNAVGDGIVLCKMINLSVPDTIDERTINKKKLTPFTIQENLNLALNSASAIGCHVVNIGAEDLKEGKPYLVLGLLWQVIKIGLFADIELSRNEALIALLREGESLEDLMKLSPEELLLRWANYHLENAGCNKIGNFSTDIKDSKAYYHLLEQVAPKGDEEGVPAVVIDMSGLREKDDIQRAECMLQQAERLGCRQFVTATDVVRGNPKLNLAFIANLFNRYPALHKPENQDI
		31.7 µM	17.7 µM	plastin 2 (PLS2), full-length (natural protein, plastin 2 (PLS2, L-plastin, LCP1), human, full-length (FL) protein; Cloned in pColdI behind a 6xHis tag and TEV site; also called LCP1; L-plastin; source: E. coli BL21-CodonPlus(DE3)pLysS, purified (IMAC on cobalt resin, TEV cleavage, Superdex 200); not shown: His6, N-terminal, cleaved) MARGSVSDEEMMELREAFAKVDTDGNGYISFNELNDLFKAACLPLPGYRVREITENLMATGDLDQDGRISFDEFIKIFHGLKSTDVAKTFRKAINKKEGICAIGGTSEQSSVGTQHSYSEEEKYAFVNWINKALENDPDCRHVIPMNPNTNDLFNAVGDGIVLCKMINLSVPDTIDERTINKKKLTPFTIQENLNLALNSASAIGCHVVNIGAEDLKEGKPYLVLGLLWQVIKIGLFADIELSRNEALIALLREGESLEDLMKLSPEELLLRWANYHLENAGCNKIGNFSTDIKDSKAYYHLLEQVAPKGDEEGVPAVVIDMSGLREKDDIQRAECMLQQAERLGCRQFVTATDVVRGNPKLNLAFIANLFNRYPALHKPENQDIDWGALEGETREERTFRNWMNSLGVNPRVNHLYSDLSDALVIFQLYEKIKVPVDWNRVNKPPYPKLGGNMKKLENCNYAVELGKNQAKFSLVGIGGQDLNEGNRTLTLALIWQLMRRYTLNILEEIGGGQKVNDDIIVNWVNETLREAKKSSSISSFKDPKISTSLPVLDLIDAIQPGSINYDLLKTENLNDDEKLNNAKYAISMARKIGARVYALPEDLVEVNPKMVMTVFACLMGKGMKRV
